Tested on: CCCCCC(=O)NC1CCOC1=O
Assay: purified protein
Settings: pH 8.0, 50 mM Tris-Cl, 35°C (methods: 30°C, 2 h for saturation curve), no added metal

AdeH (Lysinibacillus sp. Gs50)
Km: 3.089 µM

Source: article PMC5135098, “Attenuation of Quorum Sensing Regulated Virulence of Pectobacterium carotovorum subsp. carotovorum through an AHL Lactonase Produced by Lysinibacillus sp. Gs50” (PLoS ONE, 2016)
